Measured values: article PMC12713088, “Arabidopsis TRB Proteins Form Two Closely Related Complexes to Mediate H3K4me3 Demethylation and Transcriptional Repression” (Advanced Science, 2025)

Columns and labels:
[1] = molecular target: T1, NAC050-N (Arabidopsis thaliana, UniProt Q9SQX9 1-184); test: EMSA; EMSA: 10 mM Tris-HCl pH 7.5, 50 mM NaCl, 1 mM EDTA, 5% glycerol, 1 mM DTT, 25 C, 30 min, 20 ng DNA + 1 ug protein; ITC: 20 mM Tris-HCl pH 7.5, 150 mM NaCl, 25 C, 5 uM protein, 100 uM DNA; conditions: protein: recombinant; tags: MBP; chain copies: 2; label: Cy5 at 5' of strand 1; blunt
T1 sequence: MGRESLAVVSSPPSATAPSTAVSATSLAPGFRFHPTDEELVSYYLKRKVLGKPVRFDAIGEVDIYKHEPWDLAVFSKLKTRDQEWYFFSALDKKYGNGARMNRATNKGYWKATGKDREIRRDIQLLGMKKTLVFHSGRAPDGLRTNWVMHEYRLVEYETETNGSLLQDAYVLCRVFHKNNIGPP

[2] = molecular target: T2, TRB1;NAC050-N (Arabidopsis thaliana;Arabidopsis …, UniProt Q8VWK4;Q9SQX9 1-300;1-184, |); test: EMSA; TRB1 added to NAC050-N; larger complex; EMSA: 10 mM Tris-HCl pH 7.5, 50 mM NaCl, 1 mM EDTA, 5% glycerol, 1 mM DTT, 25 C, 30 min, 20 ng DNA + 1 ug protein; ITC: 20 mM Tris-HCl pH 7.5, 150 mM NaCl, 25 C, 5 uM protein, 100 uM DNA; conditions: protein: recombinant;recombinant; tags: His;MBP; label: Cy5 at 5' of strand 1; blunt
T2 sequence 1: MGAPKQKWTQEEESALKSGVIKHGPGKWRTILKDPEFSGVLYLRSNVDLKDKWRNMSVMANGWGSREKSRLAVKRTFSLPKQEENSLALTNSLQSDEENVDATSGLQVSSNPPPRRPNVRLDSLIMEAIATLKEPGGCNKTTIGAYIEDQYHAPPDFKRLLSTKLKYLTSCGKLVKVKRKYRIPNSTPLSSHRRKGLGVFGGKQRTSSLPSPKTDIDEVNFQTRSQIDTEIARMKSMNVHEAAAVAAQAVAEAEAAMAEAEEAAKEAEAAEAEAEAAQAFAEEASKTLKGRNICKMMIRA
T2 sequence 2: T1 sequence

B1: Probe 2 (P2) (dsDNA)
DNA 1: GACGCTTGAGCCTCAAGAAAT
DNA 2: ATTTCTTGAGGCTCAAGCGTC
Does B1 bind [1]?
Result: binds

Does B1 bind [2]?
Result: binds
